Experiments:
[1] = target: ZIKV-H/PF/2013 sE protein (aa 1-404) (Zika virus (strain H/PF/2013)); assay: BLI
[2] = target: ZIKV strain PF13 envelope (E) protein on virions (Zika virus (strain PF13), UniProt A0A024B7W1); assay: ELISA; apparent
[3] = target: DENV3 strain H87 envelope (E) protein on virions (Dengue virus 3 (strain H87)); assay: ELISA; apparent
[4] = target: DENV4 strain 1-0093 envelope (E) protein on virions (Dengue virus 4 (strain 1-0093)); assay: ELISA; apparent
[5] = target: DENV2 strain 16681 envelope (E) protein on virions (Dengue virus 2 (strain 16681)); assay: ELISA; apparent

Row | Binder | Kd [1] [nM] | Kd [2] [nM] | Kd [3] [nM] | Kd [4] [nM] | Kd [5] [nM]
1 | K^L66A C10 mAb mutant (IgG1) (antibody, V domains shown) VH: EVQLVESGAEVKKPGASVKVSCKASGYTFTSYAMHWVRQAPGQRLEWMGWINAGNGNTKYSQKFQDRVTITRDTSASTAYMELSSLRSEDTAIYYCARDKVDDYGDYWFPTLWYFDYWGQGTLVTVSS VL: QSALTQPASVSGSPGQSITISCTGTSSDVGGFNYVSWFQQHPGKAPKLMLYDVTSRPSGVSSRFSGSASGNTASLTISGLQAEDEADYYCSSHTSRGTWVFGGGTKLTVL | 40.3 |  |  |  | 
2 | C10 intact bivalent IgG1 (human monoclonal antibody EDE1 C10) (antibody, V domains shown) VH: EVQLVESGAEVKKPGASVKVSCKASGYTFTSYAMHWVRQAPGQRLEWMGWINAGNGNTKYSQKFQDRVTITRDTSASTAYMELSSLRSEDTAIYYCARDKVDDYGDYWFPTLWYFDYWGQGTLVTVSS VL: QSALTQPASVSGSPGQSITISCTGTSSDVGGFNYVSWFQQHPGKAPKLMLYDVTSRPSGVSSRFSGSKSGNTASLTISGLQAEDEADYYCSSHTSRGTWVFGGGTKLTVL | 16.2 | 0.41 | 2.03 | 1.42 | 
3 | C10 monovalent antigen binding fragment (Fab) (Fab, V domains shown) VH: EVQLVESGAEVKKPGASVKVSCKASGYTFTSYAMHWVRQAPGQRLEWMGWINAGNGNTKYSQKFQDRVTITRDTSASTAYMELSSLRSEDTAIYYCARDKVDDYGDYWFPTLWYFDYWGQGTLVTVSS VL: QSALTQPASVSGSPGQSITISCTGTSSDVGGFNYVSWFQQHPGKAPKLMLYDVTSRPSGVSSRFSGSKSGNTASLTISGLQAEDEADYYCSSHTSRGTWVFGGGTKLTVL |  | 1.16 | 165 | 29.2 | 38.8

Reference: article PMC8724787 (2021)
